In the supplement of paper PMC11246515:
± gives the standard deviation of the averaged measurements.

Assay: total protein half-life in vivo (active degradation + dilution); higher = more stable protein
[1] = E. coli NCM3722 delta-clpP delta-lon delta-hslV, growth: N-lim chemostat, doubling time 6 h
[2] = E. coli NCM3722 delta-hslV, growth: N-lim chemostat, doubling time 6 h
[3] = E. coli NCM3722 delta-lon, growth: N-lim chemostat, doubling time 6 h
[4] = E. coli NCM3722 delta-smpB, growth: N-lim chemostat, doubling time 6 h
[5] = wild type E. coli NCM3722, growth: C-lim chemostat, doubling time 3 h
[6] = wild type E. coli NCM3722, growth: C-lim chemostat, doubling time 6 h
[7] = wild type E. coli NCM3722, growth: C-lim chemostat, doubling time 12 h
[8] = wild type E. coli NCM3722, growth: N-lim chemostat, doubling time 6 h
[9] = wild type E. coli NCM3722, growth: N-lim chemostat, doubling time 12 h
[10] = wild type E. coli NCM3722, growth: P-lim chemostat, doubling time 6 h
[11] = wild type E. coli NCM3722, growth: P-lim chemostat, doubling time 12 h
[12] = E. coli NCM3722 delta-clpP, growth: N-lim chemostat, doubling time 6 h

In the case of “MVSSFTSAPRSGFYYFAQGWKLVSQPGIRRFVILPLLVNILLMGGAFWWLFTQLDVWIPTLMSYVPDWLQWLSYLLWPLAVISVLLVFGYFFSTIANWIAAPFNGLLAEQLEARLTGATPPDTGIFGIMKDVPRIMKREWQKFAWYLPRAIVLLILYFIPGIGQTVAPVLWFLFSAWMLAIQYCDYPFDNHKVPFKEMRTALRTRKITNMQFGALTSLFTMIPLLNLFIMPVAVCGATAMWVDCYRDKHAMWR [P0A6J3]”, the “total protein half-life in vivo” value [1] is reported as 6.46 h, the “total protein half-life in vivo” value [2] is reported as 5.84 h and the “total protein half-life in vivo” value [3] is reported as 6.33 ± 0.76 h. The “total protein half-life in vivo” value [4] was 6.144 ± 0.028 h, the “total protein half-life in vivo” value [5] was 3.19 ± 0.53 h and the “total protein half-life in vivo” value [6] was 5.49 ± 0.6 h. For the same sequence, the “total protein half-life in vivo” value [7] was 12.3 h, the “total protein half-life in vivo” value [8] was 6.67 h and the “total protein half-life in vivo” value [9] was 13.7 ± 1.9 h. The “total protein half-life in vivo” value [10] was 7.18 h and the “total protein half-life in vivo” value [11] was 13.2 ± 0.26 h.
For “MVTFHTNHGDIVIKTFDDKAPETVKNFLDYCREGFYNNTIFHRVINGFMIQGGGFEPGMKQKATKEPIKNEANNGLKNTRGTLAMARTQAPHSATAQFFINVVDNDFLNFSGESLQGWGYCVFAEVVDGMDVVDKIKGVATGRSGMHQDVPKEDVIIESVTVSE”, the “total protein half-life in vivo” value [1] was 4.83 ± 0.65 h, the “total protein half-life in vivo” value [12] was 4.38 h and the “total protein half-life in vivo” value [2] was 4.92 ± 0.92 h. The “total protein half-life in vivo” value [3] was 4.83 ± 0.27 h, the “total protein half-life in vivo” value [4] was 4.11 ± 0.046 h and the “total protein half-life in vivo” value [5] was 3.3 ± 0.97 h. For the same sequence, the “total protein half-life in vivo” value [6] was 6.03 ± 0.56 h, the “total protein half-life in vivo” value [7] was 9.92 ± 0.88 h and the “total protein half-life in vivo” value [8] was 4.507 ± 0.039 h. The “total protein half-life in vivo” value [9] was 7.49 ± 1.2 h and the “total protein half-life in vivo” value [11] was 11.1 ± 0.3 h.
For “MVTINNARKILQRVDTLPLYLHAYAFHLNMRLERVLPADLLDIASENNLRGVKIHVLDGERFSLGNMDDKELSAFGDKARRLNLDIHIETSASDKASIDEAVAIALKTGASSVRFYPRYEGNLRDVLSIIANDIAYVRETYQDSGLTFTIEQHEDLKSHELVSLVKESEMESLSLLFDFANMINANEHPIDALKTMAPHITQVHIKDALIVKEPGGLGHKACISGQGDMPFKALLTHLICLGDDEPQVTAYGLEEEVDYYAPAFRFEDEDDNPWIPYRQMSETPLPENHLLDARLRKEKEDAINQINHVRNVLQQIKQEANHLLNH”, the “total protein half-life in vivo” value [1] was 4.45 ± 0.4 h, the “total protein half-life in vivo” value [12] was 2.09 ± 0.14 h and the “total protein half-life in vivo” value [2] was 2.28 ± 0.57 h. The “total protein half-life in vivo” value [3] was 3.21 h, the “total protein half-life in vivo” value [4] was 1.68 ± 0.29 h and the “total protein half-life in vivo” value [5] was 1.99 ± 0.052 h. For the same sequence, the “total protein half-life in vivo” value [6] was 2.9 h, the “total protein half-life in vivo” value [7] was 4.36 ± 0.28 h and the “total protein half-life in vivo” value [8] was 2.77 h. For the same sequence, the “total protein half-life in vivo” value [9] was 3.27 ± 0.036 h, the “total protein half-life in vivo” value [10] was 2.88 h and the “total protein half-life in vivo” value [11] was 4.74 ± 0.53 h.
With “MVTSCTGHVLDNQRATTRGVFSSGSHLVTLHFQPHPFFSCVTDAVNGARSRFSAFYPKANYGLQGSQPSDVRAHNRAANGACDEYKQLKVLSMGRQKAVIKARREAKRVLRRDSRSHKQREEESVTSLVQMGGVEAIGMARDSRDTSPILARNEAQLHYLKAIESKQLIFATGEAGCGKTWISAAKAAEALIHKDVDRIIVTRPVLQADEDLGFLPGDIAEKFAPYFRPVYDVLVRRLGASFMQYCLRPEIGKVEIAPFAYMRGRTFENAVVILDEAQNVTAAQMKMFLTRLGENVTVIVNGDITQCDLPRGVCSGLSDALERFEEDEMVGIVRFGKEDCVRSALCQRTLHAYS [P0A9K1]” the “total protein half-life in vivo” value [1] was 5.82 ± 0.65 h, the “total protein half-life in vivo” value [12] was 1.96 ± 0.059 h and the “total protein half-life in vivo” value [2] was 0.55 ± 0.47 h. The “total protein half-life in vivo” value [3] was 0.666 ± 0.43 h, the “total protein half-life in vivo” value [4] was 0.308 ± 0.011 h and the “total protein half-life in vivo” value [5] was 0.166 ± 0.058 h. For the same sequence, the “total protein half-life in vivo” value [6] was 0.347 ± 0.25 h, the “total protein half-life in vivo” value [7] was 0.864 h and the “total protein half-life in vivo” value [8] was 0.735 ± 0.45 h. The “total protein half-life in vivo” value [9] was 0.571 h, the “total protein half-life in vivo” value [10] was 0.355 h and the “total protein half-life in vivo” value [11] was 1.23 ± 0.8 h.
For “MVWIDYAIIAVIAFSSLVSLIRGFVREALSLVTWGCAFFVASHYYTYLSVWFTGFEDELVRNGIAIAVLFIATLIVGAIVNFVIGQLVEKTGLSGTDRVLGVCFGALRGVLIVAAILFFLDSFTGVSKSEDWSKSQLIPQFSFIIRCFFDYLQSSSSFLPRA”, the “total protein half-life in vivo” value [9] was 7.81 h.
With “MWDVIDLSRWQFALTALYHFLFVPLTLGLIFLLAIMETIYVVTGKTIYRDMTRFWGKLFGINFALGVATGLTMEFQFGTNWSFYSNYVGDIFGAPLAMEALMAFFLESTFVGLFFFGWQRLNKYQHLLVTWLVAFGSNLSALWILNANGWMQYPTGAHFDIDTLRMEMTSFSELVFNPVSQVKFVHTVMAGYVTGAMFIMAISAWYLLRGRERNVALRSFAIGSVFGTLAIIGTLQLGDSSAYEVAQVQPVKLAAMEGEWQTEPAPAPFHVVAWPEQDQERNAFALKIPALLGILATHSLDKPVPGLKNLMAETYPRLQRGRMAWLLMQEISQGNREPHVLQAFRGLEGDLGYGMLLSRYAPDMNHVTAAQYQAAMRGAIPQVAPVFWSFRIMVGCGSLLLLVMLIALVQTLRGKIDQHRWVLKMALWSLPLPWIAIEAGWFMTEFGRQPWAIQDILPTYSAHSALTTGQLAFSLIMIVGLYTLFLIAEVYLMQKYARLGPSAMQSEQPTQQQG” the “total protein half-life in vivo” value [1] was 3.4 h, the “total protein half-life in vivo” value [2] was 4.58 ± 0.54 h and the “total protein half-life in vivo” value [3] was 1.46 h. The “total protein half-life in vivo” value [4] was 1.93 h, the “total protein half-life in vivo” value [8] was 5.27 ± 0.94 h and the “total protein half-life in vivo” value [9] was 14.6 h. For the same sequence, the “total protein half-life in vivo” value [10] was 0.869 h and the “total protein half-life in vivo” value [11] was 2.11 h.
For “MWKRLLIVSAVSAAMSSMALAAPLTVGFSQVGSESGWRAAETNVAKSEAEKRGITLKIADGQQKQENQIKAVRSFVAQGVDAIFIAPVVATGWEPVLKEAKDAEIPVFLLDRSIDVKDKSLYMTTVTADNILEGKLIGDWLVKEVNGKPCNVVELQGTVGASVAIDRKKGFAEAIKNAPNIKIIRSQSGDFTRSKGKEVMESFIKAENNGKNICMVYAHNDDMVIGAIQAIKEAGLKPGKDILTGSIDGVPDIYKAMMDGEANASVELTPNMAGPAFDALEKYKKDGTMPEKLTLTKSTLYLPDTAKEELEKKKNMGY”, the “total protein half-life in vivo” value [1] was 5.47 ± 0.2 h, the “total protein half-life in vivo” value [12] was 5.64 ± 0.063 h and the “total protein half-life in vivo” value [2] was 6.128 ± 0.015 h. For the same sequence, the “total protein half-life in vivo” value [3] was 5.93 ± 0.48 h, the “total protein half-life in vivo” value [4] was 5.06 ± 0.13 h and the “total protein half-life in vivo” value [5] was 3.09 ± 0.11 h. For the same sequence, the “total protein half-life in vivo” value [6] was 6.11 ± 0.068 h, the “total protein half-life in vivo” value [7] was 12 ± 1.7 h and the “total protein half-life in vivo” value [8] was 5.68 ± 1.1 h. The “total protein half-life in vivo” value [9] was 11.9 ± 1.6 h, the “total protein half-life in vivo” value [10] was 5.4 ± 0.41 h and the “total protein half-life in vivo” value [11] was 13.35 ± 0.018 h.
